The values that follow come from paper PMC3412864 (PLoS ONE, 2012).

Positions count from the first letter of the chain named. Names may count otherwise.

The target of data set [1] is T1, Gh-ChrR (Novacetimonas hansenii, UniProt D5QFC5).
T1 construct: gene GXY_09224; full length (193 native residues) plus C-terminal 6xHis tag kept; E. coli BL21(DE3), codon-optimised
Kind of data set: X-ray crystal structure, […] Å; absorbance stoichiometry. The conditions noted are these: non-covalent, one FMN per monomer, co-purified. The class given is binding.

Data set [2] addresses T1, Gh-ChrR. Nature of the data set: chromate reduction rate. In kind it is biochemical. The conditions noted are these: 200 µM NADPH, 5 µM enzyme, 50 mM Tris-HCl, 100 mM NaCl, pH 7.4.
The target of data set [3] is T1, Gh-ChrR. Kind of data set: initial velocities, ordered bireactant model with substrate inhibition. The conditions noted are these: competitive with chromate, dead-end FMN-enzyme-NADH complex. In kind it is biochemical. An excerpt: initial velocities, ordered bireactant model with substrate inhibition on Gh-ChrR | Ki is the dissociation constant of the dead-end product of FMN-Gh-ChrR-NADH

Substrate in data set [4]: NC(=O)C1=CN([C@@H]2O[C@H](COP(=O)(O)OP(=O)(O)OC[C@H]3O[C@@H](n4cnc5c(N)ncnc54)[C@H](O)[C@@H]3O)[C@@H](O)[C@H]2O)C=CC1
Described as above. The class given is biochemical, Novacetimonas hansenii. The conditions noted are these: varied chromate and NADH, Tris-HCl pH 7.4. An excerpt: initial velocities, ordered bireactant model with substrate inhibition on […] | KmB is the Michaelis-Menten constant of NADH

Data set [5] deals with the molecule itself. Nature of the data set: crystal structure; hanging-drop vapor diffusion at room temperature; protein ~9 mg/mL in 20 mM Tris-HCl, 150 mM NaCl, pH 7.4; precipitant 0.5% PEG4000, 10% isopropanol, 0.1 M HEPES pH 7.5; 2.25 Å; four monomers in the asymmetric unit.
Substrate in data set [6]: [O]=[Cr](=[O])([OH])[OH]
Nature of the data set: purified protein. The conditions noted are these: 100 µM NADH, 5 µM enzyme, 50 mM Tris-HCl, 100 mM NaCl, pH 7.4, 37°C, aerobic.

As for `Cc1cc2nc3c(=O)[nH]c(=O)nc-3n(C[C@H](O)[C@H](O)[C@H](O)COP(=O)(O)O)c2cc1C` [FMN], the “X-ray crystal structure, 2.25 Å; absorbance stoichiometry” value in data set [1] is reported as “Gh-ChrR crystallized with one molecule of FMN associated with each protein monomer”.
In the case of `NC(=O)C1=CN([C@@H]2O[C@H](COP(=O)(O)OP(=O)(O)OC[C@H]3O[C@@H](n4cnc5c(N)ncnc54)[C@H](OP(=O)(O)O)[C@@H]3O)[C@@H](O)[C@H]2O)C=CC1` [NADPH], in data set [2], the chromate reduction rate result was “Both NADH and NADPH support maximal chromate reduction by Gh-ChrR”.
`NC(=O)C1=CN([C@@H]2O[C@H](COP(=O)(O)OP(=O)(O)OC[C@H]3O[C@@H](n4cnc5c(N)ncnc54)[C@H](O)[C@@H]3O)[C@@H](O)[C@H]2O)C=CC1` [NADH] showed a Ki in data set [3] of 3.5 ± 0.7 µM.

B1: Gluconacetobacter hansenii chromate reductase (Gh-ChrR) (enzyme, Gluconacetobacter hansenii ATCC 23769)
chain: MTTTSPLHFVTLLGSLRKASFNAAVARALPEIAPEGIAITPLGSIGTFPHYSQDVQEEGFPAPVLTMAQQIATADAVVIVTPEYNYSVPGVLKNAIDWLSRVSPQPLAGKPVALVTASPGMIGGARAQYHLRQSLVFLDAYVLNRPEAMIGQVTGKVDAQTLELSDVATREFLARQLDALAALARTLSPRAIT
notes: Gh-ChrR, NAD(P)H-dependent FMN reductase from Gluconacetobacter hansenii ATCC 23769 (ZP_06834583); 193 native residues; codon-optimised synthetic gene in pJexpress411; Monomer 21.3 kDa (193 native residues plus a six-residue C-terminal poly-histidine tag); In the crystal 5-6 N-terminal and 7-9 C-terminal residues are not seen; also called putative chromate reductase; source: E. coli BL21(DE3), …
Consider B1, for which the Km in data set [4] stood at 7 ± 1 µM. Further, in data set [5], the “stoichiometry N” value was 4. In data set [6], the Km was 240 ± 70 µM, the Vmax was determined as 0.75 µmol/min/mg, the kcat is 0.25 s⁻¹ and the specificity constant (kcat/Km) stood at 1000 M⁻¹ s⁻¹.

B2: Gh-ChrR (Novacetimonas hansenii ATCC 23769; S118A) (protein)
chain: B1 chain with S118A
For the molecule B2, in data set [6], the Km stood at 600 ± 20 µM, the Vmax came to 0.9 µmol/min/mg, the kcat came out at 0.3 s⁻¹ and the kcat/Km amounted to 500 M⁻¹ s⁻¹.

B3: Gh-ChrR (Novacetimonas hansenii ATCC 23769; R101A) (protein)
chain: B1 chain with R101A
For the molecule B3, in data set [6], the Km was found to be 1900 ± 600 µM, the Vmax worked out at 0.24 µmol/min/mg, the kcat amounted to 0.08 s⁻¹ and the kcat/Km was 40 M⁻¹ s⁻¹.

B4: Gh-ChrR (Novacetimonas hansenii ATCC 23769; N85A) (protein)
chain: B1 chain with N85A
Take B4: in data set [6], the Km is 600 ± 100 µM, the Vmax is 0.16 µmol/min/mg, the kcat worked out at 0.053 s⁻¹ and the kcat/Km is 90 M⁻¹ s⁻¹.

For orientation: Km means the substrate concentration at which the rate is half of its maximum. As usually defined, the stoichiometry N is the number of molecules, sites or subunits per partner or assembly. Usually Vmax stands for the top rate of the reaction or transport when substrate is in excess. For orientation: kcat means the maximal rate divided by the concentration of active sites. The kcat/Km is the second-order rate constant that governs catalysis at low substrate concentration.
